According to paper PMC4860835, “ALG-2 activates the MVB sorting function of ALIX through relieving its intramolecular interaction” (Cell Discovery, 2015):

Target: T1, ALIX (endogenous, HEK293 cells) (human (endogenous in HEK293), UniProt Q8WUM4 1-868)
T1 construct: also called cytosolic ALIX; AIP1
T1 sequence (looked up): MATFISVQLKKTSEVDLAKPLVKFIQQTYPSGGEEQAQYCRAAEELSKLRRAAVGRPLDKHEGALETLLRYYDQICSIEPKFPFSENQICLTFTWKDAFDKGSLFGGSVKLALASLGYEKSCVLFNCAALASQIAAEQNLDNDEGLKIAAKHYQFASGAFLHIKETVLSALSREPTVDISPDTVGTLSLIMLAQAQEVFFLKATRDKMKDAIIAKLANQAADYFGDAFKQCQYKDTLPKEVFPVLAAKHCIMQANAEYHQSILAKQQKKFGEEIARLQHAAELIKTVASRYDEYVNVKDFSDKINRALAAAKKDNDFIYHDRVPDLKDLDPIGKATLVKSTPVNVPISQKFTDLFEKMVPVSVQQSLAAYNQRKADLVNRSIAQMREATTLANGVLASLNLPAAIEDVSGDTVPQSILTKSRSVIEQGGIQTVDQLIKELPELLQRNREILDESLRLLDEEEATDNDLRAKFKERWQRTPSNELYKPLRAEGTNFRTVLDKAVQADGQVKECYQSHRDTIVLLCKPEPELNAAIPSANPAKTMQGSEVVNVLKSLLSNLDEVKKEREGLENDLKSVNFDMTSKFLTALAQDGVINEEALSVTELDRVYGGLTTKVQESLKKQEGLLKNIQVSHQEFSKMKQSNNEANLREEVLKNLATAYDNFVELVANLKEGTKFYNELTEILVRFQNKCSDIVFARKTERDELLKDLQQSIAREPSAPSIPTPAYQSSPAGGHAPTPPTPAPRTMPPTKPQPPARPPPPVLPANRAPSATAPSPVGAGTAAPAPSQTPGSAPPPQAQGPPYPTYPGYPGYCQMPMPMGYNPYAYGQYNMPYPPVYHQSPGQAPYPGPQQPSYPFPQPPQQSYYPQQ
Assay: co-IP; 0.1% Triton X-100-solubilized HEK293 cell lysates, 10 μM CaCl2 added; control and EGF-stimulated cells (Supplementary Figure S3A)
Settings: partners not purified

B1: ALG-2 (endogenous, HEK293 cells) (natural protein, human (endogenous in HEK293), UniProt O75340 1-191, looked up)
chain: MAAYSYRPGPGAGPGPAAGAALPDQSFLWNVFQRVDKDRSGVISDTELQQALSNGTWTPFNPVTVRSIISMFDRENKAGVNFSEFTGVWKYITDWQNVFRTYDRDNSGMIDKNELKQALSGFGYRLSDQFHDILIRKFDRQGRGQIAFDDFIQGCIVLQRLTDIFRRYDTDQDGWIQVSYEQYLSMVFSIV
notes: also called endogenous ALG-2; apoptosis-linked gene-2 product; source: endogenous, HEK293 membrane and soluble fractions and 0.1% Triton X-100 lysate
Q: Which “fold more ALG-2 interacting with ALIX in EGF-stimulated cells than in control cells” value does the source give for B1 here?
A: 3.5 fold
